Test results from patent US20240352075A1, “PACAP1-23 ANALOG GLYCOPEPTIDES AND METHODS FOR PRODUCING AND USING THE SAME” (priority 2021, published 2024).
Primed or numbered codes have the meaning given here. Where no end group is shown, it is not given here. [ ]: non-standard residue; d: D form. Glc″ = glucose, glycoside on Ser; Lac′ = lactose, glycoside on Ser; Nva = CCC[C@H](N)C(=O)O

T1: human VPAC2 (human, UniProt P41587 24-438)
T1 sequence (looked up): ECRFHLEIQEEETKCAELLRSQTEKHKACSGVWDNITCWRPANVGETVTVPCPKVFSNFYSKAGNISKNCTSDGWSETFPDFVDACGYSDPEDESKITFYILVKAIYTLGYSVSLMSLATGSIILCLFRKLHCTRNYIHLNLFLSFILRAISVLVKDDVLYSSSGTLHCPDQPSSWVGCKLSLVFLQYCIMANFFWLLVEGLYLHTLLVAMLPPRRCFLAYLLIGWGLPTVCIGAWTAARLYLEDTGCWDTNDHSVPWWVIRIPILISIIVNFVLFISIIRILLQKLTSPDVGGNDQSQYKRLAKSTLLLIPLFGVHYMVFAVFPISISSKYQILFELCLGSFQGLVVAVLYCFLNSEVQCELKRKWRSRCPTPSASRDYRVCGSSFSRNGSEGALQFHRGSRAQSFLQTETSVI

T2: human VPAC1 (human, UniProt P32241 31-457)
T2 sequence (looked up): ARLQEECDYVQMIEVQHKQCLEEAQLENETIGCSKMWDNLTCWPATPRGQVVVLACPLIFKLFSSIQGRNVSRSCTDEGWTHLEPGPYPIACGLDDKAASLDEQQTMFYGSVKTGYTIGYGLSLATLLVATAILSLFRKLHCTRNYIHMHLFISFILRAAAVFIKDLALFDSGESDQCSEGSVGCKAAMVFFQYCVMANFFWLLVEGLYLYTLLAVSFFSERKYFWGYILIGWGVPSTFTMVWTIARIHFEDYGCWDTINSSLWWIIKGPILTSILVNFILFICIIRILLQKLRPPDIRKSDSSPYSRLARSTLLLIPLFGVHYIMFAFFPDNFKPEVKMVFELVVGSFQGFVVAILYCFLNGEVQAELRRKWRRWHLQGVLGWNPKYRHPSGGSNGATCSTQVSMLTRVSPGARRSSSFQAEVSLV

T3: human PAC1 (human, UniProt P41586 21-468)
T3 sequence (looked up): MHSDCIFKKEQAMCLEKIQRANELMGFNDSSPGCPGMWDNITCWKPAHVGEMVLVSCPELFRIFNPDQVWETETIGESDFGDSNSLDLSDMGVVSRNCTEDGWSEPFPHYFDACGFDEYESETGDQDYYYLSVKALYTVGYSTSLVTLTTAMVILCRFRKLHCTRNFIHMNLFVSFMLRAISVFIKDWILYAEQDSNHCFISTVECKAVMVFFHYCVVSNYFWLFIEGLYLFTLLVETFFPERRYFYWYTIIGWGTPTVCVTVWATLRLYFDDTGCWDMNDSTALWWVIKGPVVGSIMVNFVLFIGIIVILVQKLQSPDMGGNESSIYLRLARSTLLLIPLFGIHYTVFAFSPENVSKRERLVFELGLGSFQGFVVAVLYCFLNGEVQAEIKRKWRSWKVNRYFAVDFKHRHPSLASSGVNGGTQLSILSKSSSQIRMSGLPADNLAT


Experiments:
Assay in all cases: cell-based or functional assay
human VPAC2 [1] = target: T1, human VPAC2
human VPAC1 [2] = target: T2, human VPAC1
human PAC1 = target: T3, human PAC1
human VPAC1 [3] = target: T2, human VPAC1; remark: listed apart in the source
human VPAC2 [4] = target: T1, human VPAC2; remark: listed apart in the source
human VPAC1 [5] = target: T2, human VPAC1; remark: listed apart in the source
human VPAC2 [6] = target: T1, human VPAC2; remark: listed apart in the source

selectivity for PAC1 versus VPAC2 (cAMP potency) (human VPAC2 [1]) [fold] | selectivity for PAC1 versus VPAC1 (cAMP potency) (human VPAC1 [2]) [fold] | cAMP stimulation EC50 (human PAC1) [nM] | cAMP stimulation EC50 (human VPAC1 [3]) [nM] | cAMP stimulation Emax (Table 1, differs from Table 3) (human VPAC2 [4]) [%] | cAMP stimulation EC50 (Table 1, differs from Table 3) (human VPAC1 [5]) [nM] | cAMP stimulation Emax (Table 1, differs from Table 3) (human VPAC1 [5]) [%] | cAMP stimulation EC50 (human VPAC2 [6]) [nM] | cAMP stimulation Emax (human VPAC2 [6]) [%] | cAMP stimulation Emax (human PAC1) [%] | cAMP stimulation Emax (human VPAC1 [3]) [%] | Binder
~900 | ~60 | 0.64 | 37 |  |  |  |  |  |  |  | HSDGIFTDSYSRYRKQ[Nva]AVKKYLS(Glc″)-NH2 [CRA-DV-3023]
 |  | 7 | 38 | 190 | 35 | 124 | 321 | 115 | 181 | 95 | HSDAIFTDSYSRYRKQ[Nva]AVKKYLS(Lac′)-NH2 [CRA-TG-3026]
